Experimental data taken from the RNAGym collection of RNA variant scans (doi:10.7554/elife.90254).

B1: LINE1-full (parent)
chain: UACGUAGGUGGUUUUCCCCUGAUAGUGCUAAGGGGGCCUGGAAGUUUGGACUGGGCAGAGCUCAACACAGCGUGGCAAAGUGGCUGUGGCUAGACUGCCUCUCUGGAUUCCUCGUCACUCAGCAGGGCAUCUCUGAGAGAAAUGCC

Variants of: B1
Test: self-cleavage, relative activity (ratio to wild type); higher = more cleavage; in vitro, sequencing; the parent is a self-cleaving ribozyme

| Variant | self-cleavage |
| --- | --- |
| A42G C128U | 1.28 |
| A42G U119C | 1.35 |
| G40A G82A | 1.73 |
| A42G A59G | 0.11 |
| G40A U130G | 1.19 |
| G40A U130A | 1.36 |
| A42G C145G | 1.14 |
| A43U A59G | 0.03 |
| G40A U46A | 1.23 |
| G40A U46C | 1.4 |
| G40U A140U | 1.79 |
| A43G A92G | 0.22 |
| A42U U115A | 1.39 |
| A42U U115G | 1.04 |
| A42U U115C | 1.15 |
| A42G C66U | 0.01 |
| G40A A77G | 1.02 |
| G40C A42G | 1.09 |
| A43G G114A | 1.05 |
| A42U U91C | 0.27 |
| A42C G93A | 0.03 |
| A43G G75U | 0.99 |
| G40U A92G | 0.02 |
| A42U C84U | 0.09 |

| Variant | self-cleavage |
| --- | --- |
| G41A U62C | 0.08 |
| A42U U132C | 1.01 |
| A43G U100A | 0.89 |
| A42U C120U | 0.4 |
| A42G C63U | 0.4 |
| A43G A50C | 1.73 |
| A43G A50G | 1.24 |
| U39G C103A | 1.85 |
| G41A G125A | 1.46 |
| A43G A77U | 1.05 |
| A42G U47G | 0.88 |
| A42G U47C | 1.54 |
| A43C A79G | 0.75 |
| A42C A94G | 0.28 |
| A43C A65U | 0.14 |
| A42G G127U | 1.9 |
| A42U A142U | 0.57 |
| G41A U112C | 1.67 |
| U39G G135A | 1.86 |
| A43G G54A | 0.41 |
| A43G G89U | 0.04 |
| U39G U52C | 0 |
| A43G G72U | 1.32 |
| A42G U87A | 0.1 |

| Variant | self-cleavage |
| --- | --- |
| A42G U87C | 0.41 |
| A42C A124G | 0.79 |
| A42G G54C | 0.84 |
| A42G G54U | 1.06 |
| G41A A69U | 0.06 |
| A42U U108C | 1.33 |
| G41A U102A | 1.05 |
| G40A A59G | 0.06 |
| A43C U45C | 0.51 |
| A43C U45G | 0.66 |
| A42G U62C | 0.08 |
| A42G G89C | 0 |
| A42G G89A | 0.03 |
| A42G G89U | 0.02 |
| G40A A69G | 0.49 |
| A42G A78U | 1.66 |
| G40U U85C | 0.13 |
| A42G U112C | 1.54 |
| A43G U87G | 0.16 |
| A43G U87A | 0.08 |
| A42U U130C | 1.32 |
| U39G U143C | 1.81 |
| A42C | 0.92 |
| A42U | 0.98 |

| Variant | self-cleavage |
| --- | --- |
| A42G | 1.38 |
| A43C G105U | 1.53 |
| G40C U45C | 0.75 |
| A43G C71U | 0.15 |
| A42U A78G | 0.88 |
| A43G G60A | 0.04 |
| G40A U87C | 0.06 |
| G40A C131U | 0.76 |
| A42G G139A | 1.28 |
| A42G G75A | 1.14 |
| A42U A67G | 0.21 |
| G40U U102C | 1 |
| A43G C95U | 0.16 |
| A42U U81A | 1.39 |
| A42G A138C | 0.41 |
| A43G C146A | 1.09 |
| U39G U112A | 1.65 |
| U39G U45G | 1.05 |
| G40A A57U | 0.05 |
| G41C | 1.22 |
| G41A | 1.16 |
| G41U | 1.19 |
| A42G G106U | 1.1 |
| A42U G82A | 1.38 |

| Variant | self-cleavage |
| --- | --- |
| A42G U45C | 1.2 |
| A42G A69U | 0.04 |
| A42G A69C | 0.06 |
| A43G U52G | 1.64 |
| G41C U134C | 1.76 |
| G41U U143C | 1.47 |
| A43G A129G | 1.48 |
| A43G A129U | 0.95 |
| G40A A78U | 1.96 |
| A42G U85A | 0.15 |
| A43G U119A | 1.15 |
| A42U A141G | 0.9 |
| U39G U130C | 1.25 |
| G40A A136G | 0.85 |
| A42G U134C | 1.36 |
| A42G A142G | 1.48 |
| A43G C110U | 1.8 |
| G40A A124G | 0.52 |
| A42U U87A | 0.07 |
| A43U A69U | 0.05 |
| G40A G53A | 0.74 |
| G40A U81C | 1.04 |
| A42U A50G | 0.92 |
| G40C A140G | 1.23 |

| Variant | self-cleavage |
| --- | --- |
| A43G A59G | 0.14 |
| A42U A140G | 1.29 |
| A42U A140U | 1.05 |
| G41U U45A | 1.14 |
| A43U A77G | 2.1 |
| A43G U102G | 0.84 |
| A43G U102A | 0.91 |
| A43G U102C | 1.13 |
| A42G U91C | 0.68 |
| A43G U62A | 0.1 |
| A42G G82A | 1.95 |
| A42G A129G | 1.68 |
| A43U A78C | 2.35 |
| A43U A78G | 0.61 |
| A43G G126U | 1.28 |
| A42G U96C | 0.12 |
| A42G U96G | 0 |
| A42C U134A | 0.83 |
| G41A A136U | 1.53 |
| G40U A50G | 0 |
| A42C A138G | 1.05 |
| G40A U104A | 0.75 |
| A43C U119C | 1.62 |
| A42U U47C | 1.7 |

| Variant | self-cleavage |
| --- | --- |
| G41A A140G | 1.05 |
| A43G A121U | 1.23 |
| A43G A121G | 1.12 |
| G40A G74U | 1.45 |
| U39G U85C | 0.14 |
| U39G U85A | 0 |
| G40U A124G | 0.87 |
| A42G G122A | 0.92 |
| G41C U115A | 1.88 |
| A42G C113U | 1.12 |
| A43G A78C | 1.74 |
| A43G U115A | 0.95 |
| A43G U115G | 1.02 |
| A43G U115C | 1.52 |
| A43C U108C | 1.78 |
| A42G A67U | 0.17 |
| A43G U104A | 0.42 |
| A42G G44A | 1.27 |
| A43G A65U | 0.15 |
| A43G A65C | 0 |
| A43G A65G | 0.09 |
| A43C A141U | 1.46 |
| A42G U108A | 0.71 |
